The record followed here is PMC9992855, “Functional polyamine metabolic enzymes and pathways encoded by the virosphere” (Proceedings of the National Academy of Sciences of the …, 2023).

This series has as its system N=C(N)NCCC[C@H](N)C(=O)O. Description: purified protein. To be noted: 27 °C.

From the text: decarboxylase activity assay on Ca. Fonsibacter ubiquis "ODC" (ODC/ADC)

As to “Ca. Fonsibacter ubiquis "ODC" (ODC/ADC) (unidentified)”, the Km (in general, the concentration of substrate that gives half-maximal velocity) is 1300 ± 120 µM; the turnover number (kcat) (as a rule, the maximal rate divided by the concentration of active sites) is 2.2 ± 0.13 s⁻¹; the catalytic efficiency (kcat/Km) – broadly, the second-order rate constant that governs catalysis at low substrate concentration – amounted to 1700 ± 91 M⁻¹ s⁻¹.
